The results in this text go back to PMC8131916.

Assay [1] concerns the target MM_0014, cis-prenyltransferase from Methanosarcina mazei (tag-free) (Methanosarcina mazei). Briefly: crystal structure; substrate-free MM_0014, hanging drop, Index No. 64 reagent with glycerol 3:1, 25 °C; space group C222_(1), two protein molecules per asymmetric unit; the same crystals soaked with IPP or DMAPP.
Assay [2] shares this target. Briefly: crystal structure; MM_0014 cocrystallised with FPP and MgCl2 (co-FG), Index No. 89 reagent with glycerol 3:1, 20 °C; space group P2_(1)2_(1)2_(1), eight protein molecules per asymmetric unit; the same crystals soaked with DMAPP.

As a reminder, the stoichiometry N is a count of units in the complex or per binding partner. In the case of “MM_0014, cis-prenyltransferase from Methanosarcina mazei (tag-free) (enzyme)”, the stoichiometry N in assay [1] and in assay [2] was 2 throughout.
